This note sets out measurements from PMC11999149.

For orientation: Kd means a measure of binding affinity in units of concentration. As usually defined, the koff is the first-order rate constant of dissociation. A low value points to a long-lived complex.

One assay concerns the target AR2A. Description: ELISA. Particulars: IgG at its EC50; normalized using the signal of HCV1 at EC50.
On to “detergent-extracted full-length E1/E2 of HCV isolate H77 (genotype 1a) (from UniProt P27958) C429A”, for which the percent of parent stood at 43 % WT.

For the substance “detergent-extracted full-length E1/E2 of HCV isolate H77 (genotype 1a) (from UniProt P27958) F442A”, the percent of parent came out at 71 % WT. As to “detergent-extracted full-length E1/E2 of HCV isolate H77 (genotype 1a) (from UniProt P27958) F627A”, the percent of parent was found to be 38 % WT. Consider “detergent-extracted full-length E1/E2 of HCV isolate H77 (genotype 1a) (from UniProt P27958) G436A”, for which the percent of parent was determined as 123 % WT. On to “detergent-extracted full-length E1/E2 of HCV isolate H77 (genotype 1a) (from UniProt P27958) G440A”, for which the percent of parent is 79 % WT. For “detergent-extracted full-length E1/E2 of HCV isolate H77 (genotype 1a) (from UniProt P27958) K628A”, the percent of parent came to 24 % WT.

As to “detergent-extracted full-length E1/E2 of HCV isolate H77 (genotype 1a) (from UniProt P27958) L427A”, the percent of parent was 67 % WT. As for “detergent-extracted full-length E1/E2 of HCV isolate H77 (genotype 1a) (from UniProt P27958) L438A”, the percent of parent amounted to 88 % WT. With “detergent-extracted full-length E1/E2 of HCV isolate H77 (genotype 1a) (from UniProt P27958) L441A”, the percent of parent stood at 85 % WT. As for “detergent-extracted full-length E1/E2 of HCV isolate H77 (genotype 1a) (from UniProt P27958) N428A”, the percent of parent was determined as 70 % WT. On to “detergent-extracted full-length E1/E2 of HCV isolate H77 (genotype 1a) (from UniProt P27958) R630A”, for which the percent of parent was 43 % WT. With “detergent-extracted full-length E1/E2 of HCV isolate H77 (genotype 1a) (from UniProt P27958) T425A”, the percent of parent was found to be 77 % WT. “detergent-extracted full-length E1/E2 of HCV isolate H77 (genotype 1a) (from UniProt P27958) T625A”: the percent of parent was 28 % WT.

Take “detergent-extracted full-length E1/E2 of HCV isolate H77 (genotype 1a) (from UniProt P27958) W437A”: the percent of parent is 98 % WT. For the substance “detergent-extracted full-length E1/E2 of HCV isolate H77 (genotype 1a) (from UniProt P27958) Y485A”, the percent of parent is 94 % WT.

The target of a further assay is AR3A full-length IgG (reference). Put plainly: ELISA. Conditions: IgG at its EC50; normalized using the signal of HCV1 at EC50. (ELISA stands for enzyme-linked immunosorbent assay.)
Regarding “detergent-extracted full-length E1/E2 of HCV isolate H77 (genotype 1a) (from UniProt P27958) C429A”, the percent of parent was determined as 3 % WT.

In the case of “detergent-extracted full-length E1/E2 of HCV isolate H77 (genotype 1a) (from UniProt P27958) F442A”, the percent of parent is 2 % WT. With “detergent-extracted full-length E1/E2 of HCV isolate H77 (genotype 1a) (from UniProt P27958) F627A”, the percent of parent came to 68 % WT.

Consider “detergent-extracted full-length E1/E2 of HCV isolate H77 (genotype 1a) (from UniProt P27958) G436A”, for which the percent of parent was determined as 22 % WT. For the substance “detergent-extracted full-length E1/E2 of HCV isolate H77 (genotype 1a) (from UniProt P27958) G440A”, the percent of parent was 10 % WT. Take “detergent-extracted full-length E1/E2 of HCV isolate H77 (genotype 1a) (from UniProt P27958) K628A”: the percent of parent is 63 % WT. For the substance “detergent-extracted full-length E1/E2 of HCV isolate H77 (genotype 1a) (from UniProt P27958) L427A”, the percent of parent was 7 % WT. With “detergent-extracted full-length E1/E2 of HCV isolate H77 (genotype 1a) (from UniProt P27958) L438A”, the percent of parent worked out at 4 % WT. The same measure, in the same setting: the figure for “detergent-extracted full-length E1/E2 of HCV isolate H77 (genotype 1a) (from UniProt P27958) L441A” is 5 % WT. Take “detergent-extracted full-length E1/E2 of HCV isolate H77 (genotype 1a) (from UniProt P27958) N428A”: the percent of parent was 6 % WT. Consider “detergent-extracted full-length E1/E2 of HCV isolate H77 (genotype 1a) (from UniProt P27958) R630A”, for which the percent of parent was 84 % WT. As for “detergent-extracted full-length E1/E2 of HCV isolate H77 (genotype 1a) (from UniProt P27958) T425A”, the percent of parent came to 6 % WT.

Regarding “detergent-extracted full-length E1/E2 of HCV isolate H77 (genotype 1a) (from UniProt P27958) T625A”, the percent of parent stood at 12 % WT. With “detergent-extracted full-length E1/E2 of HCV isolate H77 (genotype 1a) (from UniProt P27958) W437A”, the percent of parent amounted to 4 % WT. With “detergent-extracted full-length E1/E2 of HCV isolate H77 (genotype 1a) (from UniProt P27958) Y485A”, the percent of parent was 76 % WT.

Another assay deals with membrane truncated soluble E2 (sE2, residues 384-645) of the H77 isolate (Hepatitis C virus genotype 1a, isolate H77) (UniProt P27958). Description: SPR.
Conditions: not given
Regarding AR3A Fab (reference), the Kd came to 10 nM.

Another assay addresses membrane truncated soluble E2 (sE2, residues 384-645) of the H77 isolate (hepatitis C virus, isolate H77, genotype 1a) (UniProt P27958). Description: SPR.
Conditions: not given
In the case of “A3_9 full-length IgG1 (from UniProt P01857)”, the Kd came to 0.0448 nM and the koff was 1.02e-05 s⁻¹.

The assay is the same for the next values; noted with them: Fab.
In the case of Fab #2 (group I) (from UniProt P01857), the dissociation constant (Kd) was 0.19 nM and the koff is 2.08e-05 s⁻¹.

In the case of “Fab A2_11 (group II) (from UniProt P01857)”, the Kd worked out at 0.66 nM and the koff came to 4.41e-05 s⁻¹. In the same order, the values of Fab A3_9 (from UniProt P01857) are 1.6 nM and 0.000119 s⁻¹. For “Fab A8_9 (group III) (from UniProt P01857)”, the Kd came out at 4.02 nM and the koff worked out at 0.000299 s⁻¹. “Fab B1_9 (group II) (from UniProt P01857)” came in with a Kd of 2.62 nM and a koff of 0.000299 s⁻¹. As for “Fab B1_11 (group I) (from UniProt P01857)”, the Kd is 0.485 nM and the koff turned out to be 3.33e-05 s⁻¹.
